Source: the DeepSol protein solubility set

Test: soluble on expression in E. coli; label from the status in PepcDB or PDB records
In the case of “AAPTAIEHMEPPFWWAGMQHKGLQLMVHGRDIGRMEAALDYPGVRLVSPTRVPNANYLFVDLEIGPEAQPGSFDIVFKGDGRSERYRYRLLAREQGSAQRQGFGPGDAIYQIMPDRFANGDPSNDNVAGMREQADRRHGGGRHGGDIRGTIDHLDYIAGLGFTQLWPTPLVENDAAAYSYHGYAATDHYRIDPRYGSNEDFVRLSTEARKRGMGLIQDVVLSHIGKHHWWMKDLPTPDWINYGGKFVPTQHHRVAVQDPYAAQADSENFTKGWFVEGMPDLNQTNPLVANYLIQNNIWWIEYAGLSGLRIDTYGYSDGAFLTEYTRRLMAEYPRLNMVGQEWSTRVPVVARWQRGKANFDGYTSHLPSLMDFPLVDAMRNALSKTGEENGLNEVYETLSLDYLYPEPQNLVLFGGNHDMARMFSAAGEDFDRWRMNLVFLMTMPRIPQFYSGDEILMTSTVKGRDDASYRRDFPGGWAGDKANAFSGAGLTSQQRAAQDLVRKLANWRKNQPVIHNGRLMHFGPEENTWVYFRYNKDKRIMVAMNNNDKPMTLPTARFQEMLKGAPSGVDFLSGKTVGLGRELRLAPKSVVVIELPGLPEA”, the “soluble on expression in E. coli” value is reported as “soluble”.
In the case of “MTNIEERINQIIQVLREQVVQDTAVPRNIRRAAEQAIEALQNKEKEPAVRAADAIAILEEISEDPNMPLHTRTIIWEVLGALEQIK”, the “soluble on expression in E. coli” value is reported as “not soluble”.
In the case of “MGSSHHHHHHSSGLVPRGSHMGTASNGSTQQLPQTIIIGVRKGGTRALLEMLSLHPDVAAAENEVHFFDWEEHYSQGLGWYLTQMPFSSPHQLTVEKTPAYFTSPKVPERIHSMNPTIRLLLILRDPSERVLSDYTQVLYNHLQKHKPYPPIEDLLMRDGRLNLDYKALNRSLYHAHMLNWLRFFPLGHIHIVDGDRLIRDPFPEIQKVERFLKLSPQINASNFYFNKTKGFYCLRDSGKDRCLHESKGRAHPQVDPKLLDKLHEYFHEPNKKFFKLVGRTFDWH”, the “soluble on expression in E. coli” value is reported as “soluble”.
In the case of “ALCAICGDRATGKHYGASSCDGCKGFFRRSVRKNHMYSCRFSRQCVVDKDKRNQCRYCRLKKCFRAGMKKEAVQNERD”, the “soluble on expression in E. coli” value is reported as “soluble”.
In the case of “MKTLIEIKQTPDGIIKADKVFNKVKDKISLPNRILYLGCGSSHFLSKLLAMVTNMHGGLGIALPCSEFLYSKETYPIGEVELAVGISRSGETTEILLALEKINVKKLGITTRESSLTRMCDYSLVVPAIEESVVMTHSFTSFYFAYLQLLRYSYGLPPLNAGEISKATEKSLEYERYIREIVESFDFQNIIFLGSGLLYPVALEASLKMKEMSIFWSEAYPTFEVRHGFKAIADEKTLVVLMVEEPFEWHEKLVKEFKNQGAKVLVISNSPQDLGQDYSIELPRLSKDANPIPYLPIVQLLSYYKAVSRGLNPDNPRFLDKVVRW”, the “soluble on expression in E. coli” value is reported as “soluble”.
With “MGSSHHHHHHSSGLVPRGSHMAVSGPDDYLQHSIVPTMHYQDSLPRLPIPKLEDTMKRYLNAQKPLLDDSQFRRTEALCKNFETGVGKELHAHLLAQDKQNKHTSYISGPWFDMYLTARDSIVLNFNPFMAFNPDPKSEYNDQLTRATNLTVSAVRFLKTLQAGLLEPEVFHLNPSKSDTDAFKRLIRFVPPSLSWYGAYLVNAYPLDMSQYFRLFNSTRIPRPNRDELFTDTKARHLLVLRKGHFYVFDVLDQDGNIVNPLEIQAHLKYILSDSSPVPEFPVAYLTSENRDVWAELRQKLIFDGNEETLKKVDSAVFCLCLDDFPMKDLIHLSHTMLHGDGTNRWFDKSFNLIVAEDGTAAVHFEHSWGDGVAVLRFFNEVFRDSTQTPAITPQSQPAATNSSASVETLSFNLSGALKAGITAAKEKFDTTVKTLSIDSIQFQRGGKEFLKKKQLSPDAVAQLAFQMAFLRQYGQTVATYESCSTAAFKHGRTETIRPASIFTKRCSEAFVRDPSKHSVGELQHMMAECSKYHGQLTKEAAMGQGFDRHLYALRYLATARGLNLPELYLDPAYQQMNHNILSTSTLNSPAVSLGGFAPVVPDGFGIAYAVHDDWIGCNVSSYSGRNAREFLHCVQKCLEDIFDALEGKAIKT” the “soluble on expression in E. coli” value was “soluble”.
With “MAHHHHHHMITLQLEQHRQQLENELRKVQLQQAQQQQQLQHVQHHHNQHNQHQQQQQLQYQQSLPPVQTTMVTIDGRLYRMVSASSGEAFVNRGQPCRDLHFVDRSALVSDGSAGADGRTEAAAPQPSNHPGVCMPVSPQAELSPQQQQQHMIITVAGDRSALGETTSAAAAASLAKSSAPGTNVMLVMPTPSASHKVKYGY” the “soluble on expression in E. coli” value was “soluble”.
For “DAARRGGAAGGGGPRSPRRSGPLGPHACPPALPEPKVTSTMSSQVVGIEPLYIKAEPASPDSPKGSSETETEPPVTLASGPAPARCLPGHKEEEDGEGAGSGEQGSGKLVLSSLPKRLCLVCGDVASGYHYGVASCEACKAFFKRTIQGSIEYSCPASNECEITKRRRKACQACRFTKCLRVGMLKEGVRLDRVRGGRQKYKRRPEVDPLPFPGPFPAGPLAVAGGPRKTAPVNALVSHLLVVEPEKLYAMPDPASPDGHLPAVATLCDLFDREIVVTISWAKSIPGFSSLSLSDQMSVLQSVWMEVLVLGVAQRSLPLQDELAFAEDLVLDEEGARAAGLGDLGAALLQLVRRLQALRLEREEYVLLKALALANSDSVHIEDAEAVEQLREALHEALLEYEAGRAGPGGGAERRRAGRLPCTLPLLRQTAGKVLAHFYGVKLEGKVPMHKLFLEMLEAMMD”, the “soluble on expression in E. coli” value was “soluble”.
With “MGSDKIHHHHHHMATHNHTLTMEWIVDRTRTVYSLPYFYERLNEAINHPRSSIDDVARIIIDDQGLTARILKLANSPMFGFFSKVDSISKAVTIIGTQQLRDLALAASVMDVFKDIPRELMDMVLFWRHSIACGIVARNLAIYLRESNVERFFVAGILHDVGQLVMCTAIPEKVSEVLARNRLESRFLDATERDALGFDHAALGGALLRAWKIPATINEPVAYHHEPGKAEQFSLEVSIIHLADIICQALGYGASGEGGVPLLDPAAWDRLGVPVSILTTIVKQSEPQVEETFAILVEG” the “soluble on expression in E. coli” value was “not soluble”.
In the case of “MGGVMSYFRGLFGAREMRILILGLDGAGKTTILYRLQVGEVVTTIPTIGFNVEQVEYKNLKFQVWDLGGQTSIRPYWRCYYANTDAIIYVVDSADRDRVGISRQELATMLQEDELQGAVLAVLANKQDIAGCLTETEVYKALGLDALRNRTIQIFKTSASKGEGLDPAMDWLANQLQQKK”, the “soluble on expression in E. coli” value is reported as “not soluble”.
For “MGHHHHHHSHMTLEELVACDNAAQKMQTVTAAVEELLVAAQRQDRLTVGVYESAKLMNVDPDSVVLCLLAIDEEEEDDIALQIHFTLIQSFCCDNDINIVRVSGNARLAQLLGEPAETQGTTEARDLHCLPFLQNPHTDAWKSHGLVEVASYCEESRGNNQWVPYISLQER”, the “soluble on expression in E. coli” value was “soluble”.
In the case of “MGGSHHHHHHGMASALAELSEEALLSVLPTIRVPKAGDRVHKDECAFSFDTPESEGGLYICMNTFLGFGKQYVERHFNKTGQRVYLHLRRTRRPKEEDPATGTGDPPRKKPTRLAIGVEGGFDLSEEKFELDEDVKIVILPDYLEIARDGLGGLPDIVRDRVTSAVEALLSADSASRKQEVQAWDGEVRQVSKHAFSLKQLDNPARIPPCGWKCSKCDMRENLWLNLTDGSILCGRRYFDGSGGNNHAVEHYRETGYPLAVKLGTITPDGADVYSYDEDDMVLDPSLAEHLSHFGIDMLKMQKTDKTMTELEIDMNQRIGEWELIQESGVPLKPLFGPGYTGIRNLGNSCYLNSVVQVLFSIPDFQRKYVDKLEKIFQNAPTDPTQDFSTQVAKLGHGLLSGEYSKPVPESGDGERVPEQKEVQDGIAPRMFKALIGKGHPEFSTNRQQDAQEFFLHLINMVERNCRSSENPNEVFRFLVEEKIKCLATEKVKYTQRVDYIMQLPVPMDAALNKEELLEYEEKKRQAEEEKMALPELVRAQVPFSSCLEAYGAPEQVDDFWSTALQAKSVAVKTTRFASFPDYLVIQIKKFTFGLDWVPKKLDVSIEMPEELDISQLRGTGLQPGEEELPDIAPPLVTPDEPKAPMLDESVIIQLVEMGFPMDACRKAVYYTGNSGAEAAMNWVMSHMDDPDFANPLILPGSSGPGSTSAAADPPPEDCVTTIVSMGFSRDQALKALRATNNSLERAVDWIFSHIDDLDAEAAMDISEGRSAADSISESVPVGPKVRDGPGKYQLFAFISHMGTSTMCGHYVC”, the “soluble on expression in E. coli” value is reported as “not soluble”.
For “MGSDKIHHHHHHMTIYTLSHGSLKLDVSDQGGVIEGFWRDTTPLLRPGKKSGVATDASCFPLVPFANRVSGNRFVWQGREYQLQPNVEWDAHYLHGDGWLGEWQCVSHSDDSLCLVYEHRSGVYHYRVSQAFHLTADTLTVTLSVTNQGAETLPFGTGWHPYFPLSPQTRIQAQASGYWLEREQWLAGEFCEQLPQELDFNQPAPLPRQWVNNGFAGWNGQARIEQPQEGYAIIMETTPPAPCYFIFVSDPAFDKGYAFDFFCLEPMSHAPDDHHRPEGGDLIALAPGESTTSEMSLRVEWL”, the “soluble on expression in E. coli” value was “not soluble”.
With “MAMSFIKPIYQDINSILIGQKVKRPKSGTLSGHAAGEPFEKLVYKFLKENLSDLTFKQYEYLNDLFMKNPAIIGHEARYKLFNSPTLLFLLSRGKAATENWSIENLFEEKQNDTADILLVKDQFYELLDVKTRNISKSAQAPAIISAYKLAQTCAKMIDNKEFDLFDINYLEVDWELNGEDLVCVSTSFAELFKSEPSELYINWAAAMQIQFHVRDLDQGFNGTREEWAKSYLKHFVTQAEQRAISMIDKFVKPFKKYILRSRELVDPNSVQARLQDVDGTIDTRSKLAAAQLYTRASQPELAPEDPEDLEHHHHHH” the “soluble on expression in E. coli” value was “soluble”.
With “MGSDKIHHHHHHMLAYGYQKFGGPTVFEELPQSQLIPTDNQLLIKTLAVNLTEEDRLERLGTIQSVALPHIPGHDVIGKIIQVGAAVTDLDVGTVVAARTNHTYADQVCLDSDLAVTMPTNLDPVTAVSLVTPGIVAYKTVRYFADIQADQTVIVKGAGSPVGLLIIQLAKRLGAHVIAIASDRYANLIATLGVDQFVDYQHQNPVHVLADRGDVVINVAIDGVGGKDDLAMAKFDATIASFARHLPATSKSIRFQAIQPTEVISDQAALQLLFKLLDTGQLTTTINEQLPFNLTGFIQGHQRLDEPHVGQVVVAR” the “soluble on expression in E. coli” value was “not soluble”.
With “MPGTLSFPSDAFPAYPALEIDQPDGWVALAGVGLPLALAAEVPSGQFRPNVLVTVQRFGVGHTVADSRSAVNKSLKALPRFTQTLREDSIEMLGSPGMRVEGYFSDGKGGTMVQALRMCVVEAGPVFDVVQITGTCSGPQTEAFFGQIREIQDTLRLAG” the “soluble on expression in E. coli” value was “not soluble”.
With “MCGDCVEKEYPNRGNTCLENGSFLLNFTGCAVCSKRDFMLITNKSLKEEDGEEIVTYDPDLCKNCHHVIARHEYTFSIMDEFQEYTMLCLLCAKPKILSVFSLMTPDKLEHHHHHH” the “soluble on expression in E. coli” value was “soluble”.
For “MSLDKSIPVPEPSRMITGIKVHKISDVITYQGMISLTYDNNKRLTRIYSSSPLAAVNYTYKENSEVSYTYSTENSPLVEISTSLENGRSYVCKFSNRENPVTYSYDNEGYLKSCNNNGTVLEYNWESGNLSSITTTPRGTYNSDYRVSNIANDYSLDLNTLAQWIDDRENYTTVMNTFGQMAEILGKRSANILEDTYYIYDYSFRQDGRLKDMTLMGGSENIGYSFRFSYADDTEVSEGHHHHHH”, the “soluble on expression in E. coli” value was “soluble”.
In the case of “MQEISFRNDILPLKDKLFRLALRITLDRAEAEDVVQDTMIRVWNKRDEWSQFESVEAYCLIVAKNLAIDRSQKKEAQNVEITPEMEEEPDANSPYDQLVHDEKMNIINRLVNELPEKQRLIMQLRDIEGESYKKIATLLNLTEEQVKVNLFRARQKVKQRYLEIDEYGL”, the “soluble on expression in E. coli” value is reported as “not soluble”.
